# Assay results published in paper PMC2919055 (Proteins, 2010).
# Several values for one entry are separate records, joined by “and”; a condition that tells them apart may be missing. Equal values may be shown once. *: point of attachment. Carboxymethyl = O=C(O)C*
# B1: C-MBD of A. fulgidus CopA with carboxymethylated cysteines (domain or fragment, Archaeoglobus fulgidus, UniProt O29777 736-804, looked up)
# chain: GDSVEKIVLELSGLSC(Carboxymethyl)HHC(Carboxymethyl)VARVKKALEEAGAKVEKVDLNEAVVAGNKEDVDKYIKAVEAAGYQAKLRS
# Target: the molecule itself
# Assay: cross-linking
protein,measurement,value
B1,stoichiometry N,2 and 4
